Legend:
[1] = target: SARS-CoV-2 spike receptor-binding domain (RBD), residues 333 to 529, wild type, for crystallization (SARS-CoV-2 Wuhan-Hu-1 (QHD43416.1), UniProt P0DTC2); test: crystal structure; details: both partners purified
[2] = target: SARS-CoV-2 RBD, ancestral (wild type), for biolayer interferometry (SARS-CoV-2 Wuhan-Hu-1 (ancestral), UniProt P0DTC2); test: BLI; Octet Red; […] (15 µg/mL) […] (AHC) biosensors; […]; 1x PBS pH 7.4, 0.01% BSA, 0.002% Tween 20; association 90 s, dissociation 90 s; 1:1 binding model; details: both partners purified

| Binder | binding result [1] | binding result [2] |
| --- | --- | --- |
| ADG20 Fab (Fab, V domains shown, also called ADG-2 (same Fab domain)) VH: EVQLVESGGGLVKPGGSLRLSCAASGFTFSSYYMNWVRQAPGKGLEWVSSISEDGYSTYYPDSLKGRFTISRDSAKNSLYLQMNSLRADDTAVYYCARDFSGHTAWAGTGFEYWGQGTLVTVSS VL: QPVLTQPPSVSGAPGQRITISCTGSSSNIGAGYDVHWYQQLPGTAPKLLIYGSSSRNSGVPDRFSGSKSGTSASLAITGLQAEDEADYYCQSYDSSLSVLYTFGTGTKVTVL | binds | – |
| ADG20 IgG (antibody, V domains shown, copies: 2 + 2) VH: EVQLVESGGGLVKPGGSLRLSCAASGFTFSSYYMNWVRQAPGKGLEWVSSISEDGYSTYYPDSLKGRFTISRDSAKNSLYLQMNSLRADDTAVYYCARDFSGHTAWAGTGFEYWGQGTLVTVSS VL: QPVLTQPPSVSGAPGQRITISCTGSSSNIGAGYDVHWYQQLPGTAPKLLIYGSSSRNSGVPDRFSGSKSGTSASLAITGLQAEDEADYYCQSYDSSLSVLYTFGTGTKVTVL | – | binds |
| ADI-55688 Fab (Fab, V domains shown, also called parental antibody of ADG20) VH: EVQLVESGGGLVKPGGSLRLSCAASGFTFSSYYMNWVRQAPGKGLEWVSSISSDGYNTYYPDSLKGRFTISRDSAKNSLYLQMNSLRADDTAVYYCARDFSGHTAVAGTGFEYWGQGTLVTVSS VL: QPVLTQPPSVSGAPGQRITISCTGSSSNIGAGYDVHWYQQLPGTAPKLLIYGSSSRPSGVPDRFSGSKSGTSASLAITGLQAEDEADYYCQSYDSSLSVLYVFGTGTKVTVL | binds | – |
